Test: yeast display, Sf9 membrane polyspecificity reagent, FACS + sequencing; frameworks hold sequencing errors
Method in brief: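 A nanobody's polyreactivity label depends on the gate it was sorted from. Yeast display cells were stained with 10% biotinylated, detergent-solubilized Sf9 membrane reagent for 1 hour at 4 °C, enriched on streptavidin microbeads and sorted by FACS. The low and high (top ~1%) gates were set on anti-HA fluorescence for expression and streptavidin fluorescence for reagent binding.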
With “QVQLVESGGGLVQAGGSLRLSCAASGSIFNPYTMGWYRQAPGKERELVAAISASGGSTYYADSVKGRFTISRDNAKYTVYLQMNCLKPEDTAVYYCNVYRITRHSYNFGFDYWGQGTQVTVSS” the “polyreactivity (PSR sort gate)” value was “low polyreactivity”.
For “QVQLVESGGGLVQAGGILRLSCAASGFIFAPNAMGWYRQPPGKERELVAAISASGGSTYYADSVKGRFTISRDNAKNTVYLQMNSLKPEDTAVYYCAADRTFSSFPEYNYWGQGTQVTVSS”, the “polyreactivity (PSR sort gate)” value was “low polyreactivity”.
With “QVQLVESGGGLVQAGGSLRLSCAASGNNFSRYSMGCSRPAPGKERELVASISRGGRTNYADSVKGRFTISLDNAKNTVYLQMNSLNPEDTAVYYCALGGNGYWHQSGPYPYNYWGQGTQVTVSS” the “polyreactivity (PSR sort gate)” value was “high polyreactivity”.
In the case of “QVQLVESGRGLFQAGGSLRISCAASGSTYQFYAMGWYRQAPGIERELVASIRVRSGTTYYADSVKGRFTISRDNAKNTVYLQMNSLKPEDTAVYYCASGRPYYGRKYDYWGQGTQVTVSS”, the “polyreactivity (PSR sort gate)” value is reported as “high polyreactivity”.
For “QVQLVESGGGLVQAGGSLRLSCAASGFIFRYYAMGWYRQAPGKERELVATISASGGRTYYADSVKGRFTISRDNAKNTVYLQMNSLKPEDTAVYYCAVRPYWLGTYAPVAFDYWGQGTQVTVSS”, the “polyreactivity (PSR sort gate)” value was “high polyreactivity”.
With “QVQLVESGGRLVQAGGTLRLSCADSGNTLHVYAMGWYRQAPGKERELVARITGGGRKYYADSVKGRFTISRDNAKNTVYLLMNSLNPEDTAVYYCATDYYGHKFLYDYWGQGTQVTVSS” the “polyreactivity (PSR sort gate)” value was “low polyreactivity”.
In the case of “QVQLVESGGGLVQAGGSLRLSCAASGSIFQFYTMGWYRQAPGKERELVAAISSTGSTNYADSVKGRFTISRDNAKNTVYLQMNSLKPEDTAVYYCAAVGTYLAGYQFDYWGQGTQVTVSS”, the “polyreactivity (PSR sort gate)” value is reported as “low polyreactivity”.
For “QVQLVESGGGLVQAGGSLRLSCAASGSIFDWNSMGWYRQAPGKERELVATISWDGGSTYYADSVKGRFTISLDNAKNTVYLQMNSLKPEDTAVYYCATVFTGKPAYYARTKYDYWGQGTQVTVSS”, the “polyreactivity (PSR sort gate)” value was “low polyreactivity”.
For “QVQLVESGGGLVQAGGSLRLSCAASGLTFSKNAMGWYRQAPGKERELVATISYSSSRTNYADSVKGRFTISRDNAKNTVYLQMNSLKPEDTAVYYCAARVYKGWPTHYDYWGQGTQVTVSS”, the “polyreactivity (PSR sort gate)” value was “high polyreactivity”.
With “QVQLVESGGGLVQAGGSLRLTCAASGFIFGANTRGWYRQAPGKERELVATISWSGGSTYYADSVKGRFTISRDNAKMTVYLQMNSLKPEVTAVYYCAAPGVTYGFRSVYWGQGTQVTVSS” the “polyreactivity (PSR sort gate)” value was “low polyreactivity”.
With “QVQLVESGGGLVQAGGSLRLSCAASGFTITKYAMGWYRQAPGKERELVAAISSSGYSTYYADSVKGRFTISRDNAKNTVYFQMNSLKPEDTAVYYCAARGYYSSGVDYCGQGTQVTVSS” the “polyreactivity (PSR sort gate)” value was “high polyreactivity”.
In the case of “QVQLVESGGGLVQAGGSLRLICAASGSTFDSYAMGWYRQAPGKERELVAAISRSGGRTYYADSVKGRFTISRDNAKNTVYLQMNSLKPEDTAGYYCAAPVKVGHSLSGGDYWGQGTQVTVSS”, the “polyreactivity (PSR sort gate)” value is reported as “high polyreactivity”.
In the case of “QVQLVESGGGLVQAGGSLRLSCAASGLIFYDNMGWYRQAPGKERELVAAISSSGGSTSYADSVKGRFTISRDNAKNTVYLQMISLKPEDTAVYYCAADSSPAFLGFVGFEYWGQGTEVTVSS”, the “polyreactivity (PSR sort gate)” value is reported as “low polyreactivity”.
With “QVQLQESGGGLVQAGGSLRLSCAASGTISYAPHMGWYRQAPGKERELVAGITIVGTTYYADSVKGRFTISRDNAKNTVYLQMNSLSPGDTAVYYCAAHSEQYTPFYYWGQGTQVTVSS” the “polyreactivity (PSR sort gate)” value was “low polyreactivity”.
With “QVQLVESGGGLVQAGGSLRLSCAASGITFIYYAMGWYRQAPGKERELVAAISTGGSTYYADSVKGRCTISRDNAKNTVYLQRKSLKPEDTAVYFWNALRKSLRGGDYWGQGTQVTVSS” the “polyreactivity (PSR sort gate)” value was “high polyreactivity”.
For “QVQHVESGGGLVQAGGSLRLSCAASGFTFYSYAMGWYRQSPGKERELVANITIGGSTYADSVKGRFTISRENAKNTVYLQMNSLKPEDTAVYYCAKQYGGRYGYWGQGTQVTVSS”, the “polyreactivity (PSR sort gate)” value was “low polyreactivity”.
For “QVQLVESGGGLVQAGGSLRLSCAASGSIFYDNAMGWYRQAPGKERELVAVISNSGRTDYADSVKGRFTISRDNAKNTVYLQMNSLKPEDTAVYYCAAVVQGTTVWWGYDYWGQGTQVTVSS”, the “polyreactivity (PSR sort gate)” value was “low polyreactivity”.
In the case of “QVKLVESGAGLVQAGASLRLSCAASGLIFHQYAMGWYRQAPGKERELVAAITRSGTRTYYADSVKGRFTISRDNEKNTVYLQMNSLKPEDTAVYYCAAADTQGVSMDYWGQGTQVTVSS”, the “polyreactivity (PSR sort gate)” value is reported as “high polyreactivity”.
In the case of “QVHLVESGGGLVQAGGSLRLSCAASGSIFSWYAMGWYRQAPGKEWELVAAITWSGGSTYYADSVKGRFTISRDTAKNTVYLQMNSLKPEDTAVYYCAASYDIYGNYRRYDYWGQGTQVTVSS”, the “polyreactivity (PSR sort gate)” value is reported as “high polyreactivity”.
For “QVQLVESGGGLVQAGGSLRVSCAASGSIFSSYAMGWYRQAPGKDRELVAVINSGGSTNYADSVKGRFTISRDNAKNTVYFQMNTLKPEDTAVYYCNAYGGTFHNSAAEFDYWGQGTQVSVSS”, the “polyreactivity (PSR sort gate)” value was “low polyreactivity”.
In the case of “QVQREESGGGLVQAGGSLRLSCAASGNIFYQYAMGWYRLAPGKEREFVAAISISGTSTYADSVKGRFTISRDNAKNTVYLQMNSLKPVDTAVYWGQGTQVTVSS”, the “polyreactivity (PSR sort gate)” value is reported as “low polyreactivity”.
In the case of “QVQLVESGGGLVQAGGSLRLSCAASGFTFYSYVMGWYRQAPGKERELVAAIDPSGGRTYYADSVKGRFTISRDYAKNTVYLQMNSLKPVDTAVYYCAVPRVDYWGQGTQVTVSS”, the “polyreactivity (PSR sort gate)” value is reported as “high polyreactivity”.
With “QVQLVQSGGGLVQAGGSLRLSCAASGSTFYTYGLGWYRQAPGKARQFVAAISYRGGSTYYADSVKGRFTISRDNAKNTVYLQMNSLKPEVTAVYYCYVDGVVVGTIRGGYDYWGQGTQVTVSS” the “polyreactivity (PSR sort gate)” value was “low polyreactivity”.
For “QVQLVESGGGLVQAGGSLRLSCAASGRTFYFNAMGWYRQAPGKERELVATITRRGGSTSYADSVKGRFTISRDNAKNTVYLQMNSLKPEDTAVYYCGNVSPPKFPERFDYWGQGTQVTVSS”, the “polyreactivity (PSR sort gate)” value was “low polyreactivity”.
With “QVQLVESGGGLVQAGGSLRLSCAASGFTFPYYAMGWYRQAPGKERELVATIRSGGSTYYADSVKGRFTISRDNAKNTVYLQMNSLKPEDTAVYYCAKYQVLYSYDKYGYWGQGTQVTVSS” the “polyreactivity (PSR sort gate)” value was “low polyreactivity”.
With “QVQLVESGGGLVQAGGSLRLSCAASGAIFELNAMGWYRQAPGKERELVAAIRWRTGRTYYADSVKGRFTISRDNAKNTVYLQMNSLKPEDTAVYYCAAPVRSGVRYTLDYWGQGTQVTVSS” the “polyreactivity (PSR sort gate)” value was “high polyreactivity”.
In the case of “QVQLVESGGGLVQAGVSLRLSCAASGFTFQAYAMGWYRQAPGKERELVAAIRSRGDSTYYADSVKGRFTISRDNSKNTVYLQMNSLKPEDTAVYYCNVLGYSYWGQGTQVTVSS”, the “polyreactivity (PSR sort gate)” value is reported as “high polyreactivity”.
With “QVQLVESGGGLVQAGGSLRLSCAASGFTFPRYVMGWYRQAPGKEREFVAAITFSGGSTYYADSVKGRFTNSRDNAKNTVYLQMNSLKPEDTAVYYCAAGASLWRLGLKMGYWGQGTQVTVSS” the “polyreactivity (PSR sort gate)” value was “low polyreactivity”.
For “QVQLEESGGGLVQAGGSLRLSCAASGSIFRSYAMGWYRQAPGKEREFVAAINSRSGSTYYADSVKGRFTISRDNAKNTVYLQMNSLKPEDTAVYYCAAKFAQPDYRYDYWGQGTQVTVSS”, the “polyreactivity (PSR sort gate)” value was “high polyreactivity”.
With “QVQLVESGGGLVQAGGSLRLSCAASGRIISYYAMGWYRQAPGKERELVAAISRSGGSTYYADSVKGRFTISRDNAKNTVYLQMNSLKPEDTAVYYCAKYFRPVQGDKWGFKYWGQGTQVTVSS” the “polyreactivity (PSR sort gate)” value was “high polyreactivity”.
For “QVQLVESGGGLVQAGGSLRLSCDASGIIFTFYTMGWYRQAPGKERELVAAITWSGGSTNYADSVKGRFTISRDNAKNTVYLQMNSLKPEDTAVYYCAAQGYPQSPPWEDYWGQGTQVTVSS”, the “polyreactivity (PSR sort gate)” value was “low polyreactivity”.
In the case of “QDQLVESRGGLVQAGRSLRISCAASGFIFYNYGMGWYRQAPGKEREFVAAITKRGGRTYYADSVKGRFTISRDYAKNTVYLQMTSLKPEDTAVYYCNKAIRQDRWVQEEDYWGQGTQVTVSS”, the “polyreactivity (PSR sort gate)” value is reported as “high polyreactivity”.
With “QVQLVESGGGLVQAGGSLRLRCAASGSTFLYYSMGWYREAPGKECELVAAISSTDDSTYADSVKGRFTISRDNAKNTVYLQLNSLKPEDTAVYYCAADVQTLITLGQFDYWGQGTQVTVSS” the “polyreactivity (PSR sort gate)” value was “low polyreactivity”.
For “QVQLVESGGGLVQAGGSLRLSCAASGRIFSKYAMGWYRQAPGKERELVAAITSGGRTYYADSVKGRFTISRDNAKNTVYLQMNSLIPEDTAVYYCAARYVQVVRKFGYWGQGTQVTVSS”, the “polyreactivity (PSR sort gate)” value was “high polyreactivity”.
In the case of “QVQLVESGGGLVQAGGSLRLSCAASGRIFPVNAMGRYRQAPGKERELVATISSGDITNYADSVKGRFTISRDNAKNTVYLQMNSLKPEDTAVYYCNADTSYSEWGSWYYEYDYWGQGTQVTVSS”, the “polyreactivity (PSR sort gate)” value is reported as “low polyreactivity”.
With “QVQLVESGGGLVQAGGSLRLSCAASGYMGWYRQAPGKERELVATISGSGGSPYYADSVKGRFSISRDNAKNTVYLQMNSLKPEDTARYYCTTEIWGVNRSGYDYWGQGTQVTVSS” the “polyreactivity (PSR sort gate)” value was “low polyreactivity”.
For “QVQLVESGGGLVQAGGSLRLSCAASGIIFHFNDMGWYRQAPGKERELVAAIDSTGSTNYADSVKGRFTISRDNAKNTVNLQMNSLKPEDTAVYYCAADWTLDPSYGYYADDYWGQGTQVTVSS”, the “polyreactivity (PSR sort gate)” value was “low polyreactivity”.
In the case of “QVQLVESGGGLVQAGGSLRLSCAASGSTFDFNAMGWYRQAPWKEMELVADITRDGSTNYADSVKGRFTISRDNAKNTVYLQMNSLNPEDTAVYYCNAANRPGISGITTQGYYWGQGTQVTVSA”, the “polyreactivity (PSR sort gate)” value is reported as “low polyreactivity”.
With “QVQLVESGGGLVQAGGSLRLSFAASGFIFWNYPMGWYRQAPGKERELVAAISKRGGSTYYADSVKGRFTISRDNAKHNVYLQMNSLKPEDTAVYYCNAGRTYTALNGDYWGQGTQVTVSS” the “polyreactivity (PSR sort gate)” value was “high polyreactivity”.
For “QVQLVESGGGLVQAGGSLRLSCAASGIIFLFYAMGWYRQAPGKERELVASITWSGGSTYYADSVKGRFTISRDNAKNTVYLQMNSLKPEDTAVYYCAASVKIISYLVHSEFLGGELDYWGQGTQVTVSS”, the “polyreactivity (PSR sort gate)” value was “low polyreactivity”.
For “QVQLVESGGGLVQAGGSLRLSCAASGSIFGLNAMGWYRPAHGKETELVAAISGGSTNYADSVKGRFTISRDNAKNTVYLQMNSLKTDDTAVYYCAARARRRYYYWGQGTQVTVSS”, the “polyreactivity (PSR sort gate)” value was “high polyreactivity”.
For “HVQLVESGGGIVQAGGILRLSCAASGRIFSVYTMGWYRKAPGQERELVAAISSGASTNYADSVKGRFTISRDNAKNTVYLQMNSLKPEDTAVYYCAKEYGIYTDTPYYYWGQGTQVTVSS”, the “polyreactivity (PSR sort gate)” value was “low polyreactivity”.
For “QVQLVESGGGLVQAGGSLRLSCAASGSIFSDNAMGWYRQAPGKERELVAAITYSGGRTSYADSVKGRFTISRDNAKNTVYLQMNSLKPEDTAVYYCAVGSHSRSSNSYYYWGQGTQVTVSS”, the “polyreactivity (PSR sort gate)” value was “low polyreactivity”.

Reference: the nanobody polyreactivity screen of Harvey et al. (2022)
